Assay results published in publication PMC7939455.
Like-named read-outs stand apart in the source and are kept apart here. Blank lines part the entries; values can stand above or below the molecule they belong to.

Assays:
[1] = target: R838S mOrange-RetGC1 (human) (UniProt Q02846); assay: co-localisation of fluorescent fusions in living cells (confocal microscopy, PCC); mOrange-RetGC1 co-expressed with GCAP1-GFP or RD3-GFP in HEK293 cells (GFP plasmid to RetGC1 plasmid ~1/100 molar ratio); confocal images 24-30 h after transfection; PCC of whole-cell images; the GFP proteins are diffuse without RetGC1 and go to the membrane cyclase when they bind; PCC < 0.6 indicates lack of co-localization
[2] = target: mOrange-tagged R666W RetGC1 (human) (UniProt Q02846); assay: as above
[3] = target: mOrange-tagged WT human RetGC1 (human) (UniProt Q02846); assay: as above
[4] = target: Arg838(g- r+):Arg838(g+ r-) RetGC1 dimer (human) (UniProt Q02846)
[5] = target: Ser838(g- r+):Arg838(g+ r-) RetGC1 heterodimer (human) (UniProt Q02846)
[6] = target: Ser838(g- r+):Ser838(g+ r-) RetGC1 dimer (human) (UniProt Q02846)
[7] = target: WT human RetGC1 (human) (UniProt Q02846)
[8] = target: R666W RetGC1 (human) (UniProt Q02846)
[9] = target: WT human RetGC1 (human) (UniProt Q02846); remark: listed apart in the source
[10] = target: R838S mOrange-RetGC1 (human) (UniProt Q02846); assay: co-localisation of fluorescent fusions in living cells (confocal microscopy, PCC); mOrange-RetGC1 co-expressed with GCAP1-GFP or RD3-GFP in HEK293 cells (GFP plasmid to RetGC1 plasmid ~1/100 molar ratio); confocal images 24-30 h after transfection; PCC of whole-cell images; the GFP proteins are diffuse without RetGC1 and go to the membrane cyclase when they bind; PCC < 0.6 indicates lack of co-localization; remark: listed apart in the source
[11] = target: mOrange-tagged G982VfsX39 RetGC1 (human) (UniProt Q02846); assay: as above
[12] = target: mOrange-tagged L911F RetGC1 (human) (UniProt Q02846); assay: as above
[13] = target: mOrange-tagged R666W RetGC1 (human) (UniProt Q02846); assay: as above; remark: listed apart in the source
[14] = target: mOrange-tagged R761W RetGC1 (human) (UniProt Q02846); assay: as above
[15] = target: mOrange-tagged WT human RetGC1 (human) (UniProt Q02846); assay: as above; remark: listed apart in the source

Molecule: RD3-GFP (from UniProt Q7Z3Z2 1-195) (natural protein)
- PCC (Pearson's correlation coefficient of co-localization) [1]: 0.91
- PCC (Pearson's correlation coefficient of co-localization) [2]: 0.9
- PCC (Pearson's correlation coefficient of co-localization) [3]: 0.91

B1: Human GCAP2, N-myristoylated (natural protein)
chain: MGQEFSWEEAEAAGEIDVAELQEWYKKFVMECPSGTLFMHEFKRFFKVTDDEEASQYVEGMFRAFDKNGDNTIDFLEYVAALNLVLRGTLEHKLKWTFKIYDKDGNGCIDRLELLNIVEGIYQLKKACRRELQTEQGQLLTPEEVVDRIFLLVDENGDGQLSLNEFVEGARRDKWVMKMLQMDMNPSSWLAQQRRKSAMF
modifications: N-myristoylated
- [GCAP]1/2: half-saturating concentration of Mg2+ GCAP2 for activation of guanylyl cyclase activity in HEK293 membranes (10 mM Mg2+, 2 mM EGTA) [7]: 19 µM

B3: GCAP1-GFP (natural protein)
chain: MGNIMDGKSVEELSSTECHQWYKKFMTECPSGQLTLYEFRQFFGLKNLSPWASQYVEQMFETFDFNKDGYIDFMEYVAALSLVLKGKVEQKLRWYFKLYDVDGNGCIDRDELLTIIRAIRAINPCSDSTMTAEEFTDTVFSKIDVNGDGELSLEEFMEGVQKDQMLLDTLTRSLDLTRIVRRLQNGEQDEEGASGRETEAAEADG
- PCC (Pearson's correlation coefficient of co-localization) [10]: 0.89
- PCC (Pearson's correlation coefficient of co-localization) [11]: 0.87
- PCC (Pearson's correlation coefficient of co-localization) [12]: 0.89
- PCC (Pearson's correlation coefficient of co-localization) [13]: 0.64
- PCC (Pearson's correlation coefficient of co-localization) [14]: 0.64
- PCC (Pearson's correlation coefficient of co-localization) [15]: 0.9

Next, values leading:

- [RD3]1/2: RD3 concentration causing 50% inhibition of RetGC1 activity preactivated by 1.5 μM GCAP1 in 10 mM Mg2+ and 2 mM EGTA; pair acted on: GCAP1 with the cyclase dimer [4]: 2.3 nM
- [RD3]1/2: RD3 concentration causing 50% inhibition of RetGC1 activity preactivated by 1.5 μM GCAP1 in 10 mM Mg2+ and 2 mM EGTA; pair acted on: GCAP1 with the cyclase dimer [5]: 42 nM
- [RD3]1/2: RD3 concentration causing 50% inhibition of RetGC1 activity preactivated by 1.5 μM GCAP1 in 10 mM Mg2+ and 2 mM EGTA; pair acted on: GCAP1 with the cyclase dimer [6]: 23 nM
Molecule: Recombinant human RD3 (from UniProt Q7Z3Z2 1-195) (natural protein)

- [GCAP]1/2: half-saturating concentration of Mg2+ GCAP1 for activation of guanylyl cyclase activity in HEK293 membranes (10 mM Mg2+, 2 mM EGTA) [7]: 1.13 µM
- [GCAP1]1/2: half-saturating concentration of Mg2+ GCAP1 for activation of guanylyl cyclase activity in HEK293 membranes (10 mM Mg2+, 2 mM EGTA) [8]: 7.25 µM
- [GCAP]1/2: half-saturating concentration of GCAP1 for RetGC1 activation in 10 mM Mg2+ and 2 mM EGTA (Fig. 10C) [4]: 1.65 µM
- [GCAP]1/2: half-saturating concentration of GCAP1 for RetGC1 activation in 10 mM Mg2+ and 2 mM EGTA (Fig. 10C) [5]: 0.22 µM
- [GCAP]1/2: half-saturating concentration of GCAP1 for RetGC1 activation in 10 mM Mg2+ and 2 mM EGTA (Fig. 10C) [6]: 0.4 µM
- [GCAP]1/2: half-saturating concentration of GCAP1 for RetGC1 activation in 10 mM Mg2+ and 2 mM EGTA (Fig. 10C) [9]: 1.1 µM
B2: Human GCAP1 (E6S), N-myristoylated (natural protein)
chain: MGNVMSGKSVEELSSTECHQWYKKFMTECPSGQLTLYEFRQFFGLKNLSPSASQYVEQMFETFDFNKDGYIDFMEYVAALSLVLKGKVEQKLRWYFKLYDVDGNGCIDRDELLTIIQAIRAINPCSDTTMTAEEFTDTVFSKIDVNGDGELSLEEFIEGVQKDQMLLDTLTRSLDLTRIVRRLQNGEQDEEGADEAAEAAG
modifications: N-myristoylated

- [GCAP]1/2: half-saturating concentration of Mg2+ GCAP3 for activation of guanylyl cyclase activity in HEK293 membranes (10 mM Mg2+, 2 mM EGTA) [7]: 5.3 µM
B4: Human GCAP3, N-myristoylated (natural protein)
chain: MGNGKSIAGDQKAVPTQETHVWYRTFMMEYPSGLQTLHEFKTLLGLQGLNQKANKHIDQVYNTFDTNKDGFVDFLEFIAAVNLIMQEKMEQKLKWYFKLYDADGNGSIDKNELLDMFMAVQALNGQQTLSPEEFINLVFHKIDINNDGELTLEEFINGMAKDQDLLEIVYKSFDFSNVLRVICNGKQPDMETDSSKSPDKAGLGKVKMK
modifications: N-myristoylated
